2 molecules from patent publication US20210269836A1 (JOHN INNES CENTRE, published 2021) can be followed below.

The target of test [1] is T1, LAMT-YFPC (loganic acid methyltransferase fused to the C-terminal split YFP fragment) (UniProt B2KPR3 1-371).
T1 construct: Control construct of the BiFC assay; also called LAMT-YC; not shown: C-terminal split YFP fragment (YFPC)
T1 sequence (looked up): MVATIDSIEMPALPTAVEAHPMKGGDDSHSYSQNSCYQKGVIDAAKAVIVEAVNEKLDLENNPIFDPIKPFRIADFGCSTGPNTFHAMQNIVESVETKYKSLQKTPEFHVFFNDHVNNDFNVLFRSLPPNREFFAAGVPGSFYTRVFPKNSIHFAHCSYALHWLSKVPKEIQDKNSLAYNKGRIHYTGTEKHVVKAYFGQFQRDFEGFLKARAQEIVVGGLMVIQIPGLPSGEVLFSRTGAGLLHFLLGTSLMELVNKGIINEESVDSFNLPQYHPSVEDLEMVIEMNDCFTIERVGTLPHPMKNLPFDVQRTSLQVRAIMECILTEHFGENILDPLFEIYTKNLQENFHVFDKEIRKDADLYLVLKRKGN
Nature of the test: BiFC in transiently transformed C. roseus cells. The procedure:
(§1) Interaction of DPAS with TS and CS. DPAS/CS and DPAS/TS interactions were analyzed by BiFC in C. roseus cells transiently transformed by distinct combinations of plasmids encoding fusions with the two split YFP fragments, YFPN (YN) and YFPC (YC) as indicated on each pictures of the first row (A, D, G, J, M). Identification of transiently transformed cells was achieved by co-transformation with the nucleus (nuc)-CFP marker(B, E, H, K, N). […] Interactions of DPAS and TS with loganic acid methyltransferase (LAMT)-YN and LAMT-YC were also studied to evaluate the specificity of DPAS/TS interactions. Cell morphology is observed with differential interference contrast (DIC) (C, F, I, L, O). Scale bars, 10 μm.
(§2) Transient transformation of C. roseus cells by particle bombardment and fluorescence imaging were performed. Briefly, C. roseus plated cells were bombarded with DNA-coated gold particles (1 μm) and 1,100 psi rupture disc at a stopping-screen-to-target distance of 6 cm, using the Bio-Rad PDS1000/He system. Cells were cultivated for 16 h to 38 h (DPAS, CS and TS) or up to 96 h for PAS before being harvested and observed. The subcellular localization was determined using an Olympus BX-51 epifluorescence microscope equipped with an Olympus DP-71 digital camera and a combination of YFP and CFP filters. […]

The target in test [2] is T2, LAMT-YFPN (loganic acid methyltransferase fused to the N-terminal split YFP fragment) (UniProt B2KPR3 1-371).
T2 construct: Control construct of the BiFC assay; also called LAMT-YN; not shown: N-terminal split YFP fragment (YFPN)
T2 sequence (looked up): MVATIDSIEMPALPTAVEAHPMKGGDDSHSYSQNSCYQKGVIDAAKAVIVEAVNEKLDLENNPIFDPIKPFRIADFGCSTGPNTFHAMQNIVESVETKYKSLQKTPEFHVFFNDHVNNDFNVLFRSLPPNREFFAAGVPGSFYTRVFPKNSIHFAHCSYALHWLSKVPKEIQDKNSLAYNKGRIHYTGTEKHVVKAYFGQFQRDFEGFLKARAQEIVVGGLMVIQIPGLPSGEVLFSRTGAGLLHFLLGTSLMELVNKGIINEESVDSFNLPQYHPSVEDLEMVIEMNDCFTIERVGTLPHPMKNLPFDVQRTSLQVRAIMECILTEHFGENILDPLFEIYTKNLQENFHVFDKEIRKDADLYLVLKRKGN
Briefly: BiFC in transiently transformed C. roseus cells. Here is the method:
as §1, §2

B1: TS-YFPN (Tabersonine Synthase fused at its C-terminus to the N-terminal split YFP fragment) (enzyme)
chain: MGSSDETIFDLPPYIKVFKDGRVERLHSSPYVPPSLNDPETGGVSWKDVPISSVVSARIYLPKINNHDEKLPIIVYFHGAGFCLESAFKSFFHTYVKHFVAEAKAIAVSVEFRLAPENHLPAAYEDCWEALQWVASHVGLDISSLKTCIDKDPWIINYADFDRLYLWGDSTGANIVHNTLIRSGKEKLNGGKVKILGAILYYPYFLIRTSSKQSDYMENEYRSYWKLAYPDAPGGNDNPMINPTAENAPDLAGYGCSRLLISMVADEARDITLLYIDALEKSGWKGELDVADFDKQYFELFEMETEVAKNMLRRLASFIK
notes: BiFC fusion expressed transiently inside C. roseus cells; also called TS-YN; not shown: N-terminal split YFP fragment (YFPN) from plasmid pSCA-SPYNE173
As for B1, the binding result in test [1] is reported as “no binding”.

B2: YFPC-DPAS (dehydroprecondylocarpine acetate synthase fused at its N-terminus to the C-terminal split YFP fragment) (enzyme)
chain: MAGKSAEEEHPIKAYGWAVKDRTTGILSPFKFSRRATGDDDVRIKILYCGICHTDLASIKNEYEFLSYPLVPGMEIVGIATEVGKDVTKVKVGEKVALSAYLGCCGKCYSCVNELENYCPEVIIGYGTPYHDGTICYGGLSNETVANQSFVLRFPERLSPAGGAPLLSAGITSFSAMRNSGIDKPGLHVGVVGLGGLGHLAVKFAKAFGLKVTVISTTSKKDDAINGLGADGFLLSRDDEQMKAAIGTLDAIIDTLAVVHPIAPLLDLLRSQGKFLLLGAPSQSLELPPIPLLSGGKSIIGSAAGNVKQTQEMLDFAAEHDITANVEIIPIEYINTAMERLDKGDVRYRFVVDIENTLTPPSEL
notes: BiFC fusion expressed transiently inside C. roseus cells; also called YC-DPAS; dihydroprecondylocarpine acetate synthase; not shown: C-terminal split YFP fragment (YFPC) from plasmid pSCA-SPYCE (MR)
Turning to B2, the binding result in test [2] is “no binding”.
